Assay [1] has as its target T1, Human IRP60 protein (Kactus) (human, UniProt Q9UGN4 18-178, limits assumed).
T1 construct: Commercial soluble protein used as the flow cytometry staining reagent; also called CD300a
T1 sequence (looked up): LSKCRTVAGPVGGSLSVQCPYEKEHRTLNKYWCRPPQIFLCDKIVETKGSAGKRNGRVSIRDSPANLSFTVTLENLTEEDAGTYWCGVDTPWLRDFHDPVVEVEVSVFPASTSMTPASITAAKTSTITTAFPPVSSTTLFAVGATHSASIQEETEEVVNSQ
Kind of assay: flow cytometry; CAR19-60 T cells stained with soluble human IRP60 protein. From the text: Using a flow cytometry, the expression of anti-CD 19 scFv in CAR-T cells was detected with FITC goat anti-human Fab (Thermo Fisher), and the expression of anti-IRP60 scFv was detected with Human IRP60 protein (Kactus). It can be seen that all the CARs in the CAR-T cells prepared in this example can be effectively expressed (FIG. 12), and the immunosuppressive molecule in CAR19-60 T cells can also be effectively expressed (FIG. 13).

The target of assay [2] is T2, Human SIRPa protein (Acro) (human, UniProt P78324 31-370, limits assumed).
T2 construct: Commercial soluble protein used as the flow cytometry staining reagent; also called SIRPα; signal regulatory protein a
T2 sequence (P78324 31-370 limits assumed): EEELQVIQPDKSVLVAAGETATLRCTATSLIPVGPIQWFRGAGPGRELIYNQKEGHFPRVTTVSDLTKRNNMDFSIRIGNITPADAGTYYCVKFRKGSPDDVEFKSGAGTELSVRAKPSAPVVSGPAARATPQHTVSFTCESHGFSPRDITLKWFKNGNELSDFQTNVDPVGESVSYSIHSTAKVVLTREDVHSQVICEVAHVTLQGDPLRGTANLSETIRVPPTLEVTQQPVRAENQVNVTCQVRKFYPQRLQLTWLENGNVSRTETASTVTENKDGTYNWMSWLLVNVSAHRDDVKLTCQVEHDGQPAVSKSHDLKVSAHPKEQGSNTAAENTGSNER
Nature of the assay: flow cytometry; CAR19-α T cells stained with soluble human SIRPa protein. From the text:
Using a flow cytometry, the expression of anti-CD19 scFv in CAR-T cells was detected with FITC goat anti-human Fab (Thermo Fisher), and the expression of anti-SIRPa scFv was detected with Human SIRPa protein (Acro). It can be seen that all the CARs in the CAR-T cells prepared in this example can be effectively expressed (FIG. 7), and the immunosuppressive molecule in CAR19-α T cells can also be effectively expressed (FIG. 8).
In general terms: Flow cytometry measures light scatter and fluorescence of single cells or particles in a stream.

2 molecules from patent publication US20260201048A1 (NANJING BIOHENG BIOTECH, published 2026) can be followed below.

B1: immunosuppressive molecule targeting IRP60 (anti-IRP60 scFv, IgG4 hinge region, CD28 transmembrane region, CD28 co-stimulatory domain), expressed on CAR19-60 T … (scFv)
chain: EVQLQQSGAELVKPGASVKLSCKASGYTFTSYWMQWVKQRPGQGLEWIGEIDPSDSYTNYNQKFKGKATLTVDTSSSTTYMQLSSLTSEDSAVYYCARWGMAYGTSSYWYFDVWGTGTTVTVSSAGGGSGGGSGGGSDIQMTQTTSSLSASLGDRVTISCRASQDISNYLNWYQQKPDGTVKLLIYYTSRLHSGVPSRFSGSGSGTDYSLTISNLEQEDIATYFCQQGNTLPWTFGGGTKLEIKESKYGPPCPPCPFWVLVVVGGVLACYSLLVTVAFIIFWVRSKRSRLLHSDYMNMTPRRPGPTRKHYQPYAPPRDFAAYRS
notes: Membrane-anchored scFv on B2M-knockout T cells that also express a CD19 CAR; also called anti-IRP60 antibody
Turning to B1, in assay [1], the binding result was “binds”.

B2: immunosuppressive molecule targeting SIRPa (anti-SIRPa scFv, IgG4 hinge region, CD28 transmembrane region, CD28 co-stimulatory domain), expressed on CAR19-α T … (scFv)
chain: EVQLVESGGGLVQPGGSLRLSCAASGFNISYYFIHWVRQAPGKGLEWVASVYSSFGYTYYADSVKGRFTISADTSKNTAYLQMNSLRAEDTAVYYCARFTFPGLFTGFFGAYLGSLDYWGQGTLVTVSSGGGSGGGSGGGSDIQMTQSPSSLSASVGDRVTITCRASQSVSSAVAWYQQKPGKAPKLLIYSASSLYSGVPSRFSGSRSGTDFTLTISSLQPEDFATYYCQQAVNWVGALVTFGQGTKVEIKRESKYGPPCPPCPFWVLVVVGGVLACYSLLVTVAFIIFWVRSKRSRLLHSDYMNMTPRRPGPTRKHYQPYAPPRDFAAYRS
notes: Membrane-anchored scFv on B2M-knockout T cells that also express a CD19 CAR; also called anti-SIRPa antibody
For B2, the binding result in assay [2] is reported as “binds”.
